Source: patent US20030104981A1, “Human insulin analogues” (priority 1995, published 2003)

Assays:
[1] = target: insulin-degrading enzyme (IDE); assay: cell-based or functional assay
[2] = target: insulin receptor in the LB lymphoma cell; assay: competition with native insulin for insulin receptors on LB lymphoma cells
Chain of insulin receptor in the LB lymphoma cell (P15208 28-748, chain 1 of 2): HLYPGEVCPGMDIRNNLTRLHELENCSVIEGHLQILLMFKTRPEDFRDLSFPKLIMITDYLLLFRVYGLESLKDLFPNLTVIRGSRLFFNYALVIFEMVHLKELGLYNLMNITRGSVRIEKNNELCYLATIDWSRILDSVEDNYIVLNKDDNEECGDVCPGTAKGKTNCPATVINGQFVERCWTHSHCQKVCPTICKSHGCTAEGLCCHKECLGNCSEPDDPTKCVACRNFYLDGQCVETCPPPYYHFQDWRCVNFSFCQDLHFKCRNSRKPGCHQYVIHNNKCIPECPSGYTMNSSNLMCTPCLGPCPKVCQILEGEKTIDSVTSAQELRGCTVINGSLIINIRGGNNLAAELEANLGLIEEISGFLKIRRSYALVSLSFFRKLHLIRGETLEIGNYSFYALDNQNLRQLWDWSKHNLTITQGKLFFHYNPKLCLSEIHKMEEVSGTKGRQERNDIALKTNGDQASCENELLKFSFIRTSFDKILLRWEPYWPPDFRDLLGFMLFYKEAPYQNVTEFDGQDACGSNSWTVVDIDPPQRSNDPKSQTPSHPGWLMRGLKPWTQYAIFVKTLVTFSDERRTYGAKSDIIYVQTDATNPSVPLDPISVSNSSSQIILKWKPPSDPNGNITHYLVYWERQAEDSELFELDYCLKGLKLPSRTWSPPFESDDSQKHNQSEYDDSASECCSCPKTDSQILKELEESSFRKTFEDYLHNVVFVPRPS
Chain of insulin receptor in the LB lymphoma cell (P15208 753-1372, chain 2 of 2): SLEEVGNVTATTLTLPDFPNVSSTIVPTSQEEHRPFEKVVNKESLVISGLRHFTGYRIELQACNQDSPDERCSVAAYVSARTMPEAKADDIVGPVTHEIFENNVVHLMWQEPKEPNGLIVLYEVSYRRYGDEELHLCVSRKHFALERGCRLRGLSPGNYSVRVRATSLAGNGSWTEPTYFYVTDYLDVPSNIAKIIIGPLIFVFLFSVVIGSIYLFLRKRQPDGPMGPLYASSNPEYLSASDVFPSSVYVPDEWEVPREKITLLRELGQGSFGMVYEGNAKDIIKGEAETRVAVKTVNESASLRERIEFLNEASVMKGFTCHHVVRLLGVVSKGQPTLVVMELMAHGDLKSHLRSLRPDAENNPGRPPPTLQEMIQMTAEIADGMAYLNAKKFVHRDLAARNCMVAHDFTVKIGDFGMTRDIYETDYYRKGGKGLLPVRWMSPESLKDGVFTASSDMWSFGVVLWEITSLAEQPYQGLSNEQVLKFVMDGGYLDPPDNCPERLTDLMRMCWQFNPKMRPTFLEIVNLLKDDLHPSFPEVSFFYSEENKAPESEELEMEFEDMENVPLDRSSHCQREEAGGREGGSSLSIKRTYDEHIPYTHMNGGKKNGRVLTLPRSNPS

| Substance | stability from insulin-degrading enzyme against ^125I A14 porcine insulin (TCA precipitation or HPLC assay) [1] [times] | binding affinity as percent of native insulin [2] [%] | times less binding affinity than native insulin [2] [times] | TCA assay analysis of degradation, 10 minutes incubation [1] [%] | TCA assay analysis of degradation, 20 minutes incubation [1] [%] | TCA solubility after 15 minutes of incubation, IDE dilution 1:30 [1] [%] |
| --- | --- | --- | --- | --- | --- | --- |
| des-(B26-B30)-[Glu-B10; Thr-B14; Ser-B17; Tyr-B25-NH2] Radoyka II human insulin analogue (ligand) | 4.5 | 10 | 10 |  |  |  |
| ^125I A14 mono-iodo porcine insulin (from UniProt P01315 25-54) (ligand) |  |  |  | 25.9 | 66.8 | 22.5 |
| des-(B26-B30)-[Glu-B10; Ser-B17; Tyr-B25-NH2] Radoyka I human insulin analogue (ligand) |  | 20 | 5 |  |  |  |
